Measurements: article PMC12216052 (2025)

Biological target: Notch1(EGF1-36) (amino acids 20-1426) (human, UniProt P46531 20-1426, biotin, chemically at the N-terminus (EZ-Link Sulfo-NHS-Biotin))
Assay: SPR

Notch1(EGF1-36) (amino acids 20-1426), sequence (P46531 20-1426): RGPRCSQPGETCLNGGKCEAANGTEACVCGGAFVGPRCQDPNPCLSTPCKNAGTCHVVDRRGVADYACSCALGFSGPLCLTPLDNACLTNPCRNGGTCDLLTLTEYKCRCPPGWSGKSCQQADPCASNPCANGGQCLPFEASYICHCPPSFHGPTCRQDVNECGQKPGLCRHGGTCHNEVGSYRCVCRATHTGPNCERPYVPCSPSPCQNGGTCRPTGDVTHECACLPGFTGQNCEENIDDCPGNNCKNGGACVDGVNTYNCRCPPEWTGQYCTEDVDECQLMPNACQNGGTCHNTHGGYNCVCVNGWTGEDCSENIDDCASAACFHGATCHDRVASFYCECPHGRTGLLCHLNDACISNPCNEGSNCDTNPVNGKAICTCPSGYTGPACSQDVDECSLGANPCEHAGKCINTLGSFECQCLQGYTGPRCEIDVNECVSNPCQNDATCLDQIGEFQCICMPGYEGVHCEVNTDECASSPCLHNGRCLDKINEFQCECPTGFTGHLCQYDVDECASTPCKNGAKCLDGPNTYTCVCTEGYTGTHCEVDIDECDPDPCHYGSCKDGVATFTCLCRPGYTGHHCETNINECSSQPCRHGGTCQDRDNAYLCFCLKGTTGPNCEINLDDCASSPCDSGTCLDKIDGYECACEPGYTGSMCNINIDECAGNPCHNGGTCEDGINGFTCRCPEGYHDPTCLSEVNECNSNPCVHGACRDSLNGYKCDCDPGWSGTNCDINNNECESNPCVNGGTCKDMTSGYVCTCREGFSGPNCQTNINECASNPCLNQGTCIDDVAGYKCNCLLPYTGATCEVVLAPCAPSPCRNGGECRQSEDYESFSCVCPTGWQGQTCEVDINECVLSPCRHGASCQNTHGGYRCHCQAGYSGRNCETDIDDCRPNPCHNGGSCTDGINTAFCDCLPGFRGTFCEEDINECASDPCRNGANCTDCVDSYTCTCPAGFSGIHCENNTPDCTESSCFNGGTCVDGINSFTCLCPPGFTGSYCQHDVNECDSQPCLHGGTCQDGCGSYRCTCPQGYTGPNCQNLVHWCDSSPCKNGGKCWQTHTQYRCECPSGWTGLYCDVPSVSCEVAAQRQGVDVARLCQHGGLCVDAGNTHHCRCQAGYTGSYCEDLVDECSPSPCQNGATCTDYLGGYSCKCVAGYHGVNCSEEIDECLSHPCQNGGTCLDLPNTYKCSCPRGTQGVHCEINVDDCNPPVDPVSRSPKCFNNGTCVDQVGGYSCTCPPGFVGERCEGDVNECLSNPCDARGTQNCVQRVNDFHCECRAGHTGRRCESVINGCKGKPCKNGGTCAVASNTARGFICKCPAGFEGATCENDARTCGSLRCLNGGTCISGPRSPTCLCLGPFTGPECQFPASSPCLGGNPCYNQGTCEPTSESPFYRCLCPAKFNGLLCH

Kd: 7.7 µM
B1: Human DLL4 (N-EGF5, amino acids 27-400) (domain or fragment)
chain: SGVFQLQLQEFINERGVLASGRPCEPGCRTFFRVCLKHFQAVVSPGPCTFGTVSTPVLGTNSFAVRDDSSGGGRNPLQLPFNFTWPGTFSLIIEAWHAPGDDLRPEALPPDALISKIAIQGSLAVGQNWLLDEQTSTLTRLRYSYRVICSDNYYGDNCSRLCKKRNDHFGHYVCQPDGNLSCLPGWTGEYCQQPICLSGCHEQNGYCSKPAECLCRPGWQGRLCNECIPHNGCRHGTCSTPWQCTCDEGWGGLFCDQDLNYCTHHSPCKNGATCSNSGQRSYTCTCRPGYTGVDCELELSECDSNPCRNGGSCKDQEDGYHCLCPPGYYGLHCEHSTLSCADSPCFNGGSCRERNQGANYACECPPNFTGSNCE
